Experimental data published in paper PMC4741384 (2016).

B1: full-length mCherry-lacR-MDC1 [human] / FN-TNKS1 (flag tag and NLS signal, pCDNA 3.1) [human] (parent complex)
chain 1: MEDTQAIDWDVEEEEETEQSSESLRCNVEPVGRLHIFSGAHGPEKDFPLHLGKNVVGRMPDCSVALPFPSISKQHAEIEILAWDKAPILRDCGSLNGTQILRPPKVLSPGVSHRLRDQELILFADLLCQYHRLDVSLPFVSRGPLTVEETPRVQGETQPQRLLLAEDSEEEVDFLSERRMVKKSRTTSSSVIVPESDEEGHSPVLGGLGPPFAFNLNSDTDVEEGQQPATEEASSAARRGATVEAKQSEAEVVTEIQLEKDQPLVKERDNDTKVKRGAGNGVVPAGVILERSQPPGEDSDTDVDDDSRPPGRPAEVHLERAQPFGFIDSDTDAEEERIPATPVVIPMKKRKIFHGVGTRGPGAPGLAHLQESQAGSDTDVEEGKAPQAVPLEKSQASMVINSDTDDEEEVSAALTLAHLKESQPAIWNRDAEEDMPQRVVLLQRSQTTTERDSDTDVEEEELPVENREAVLKDHTKIRALVRAHSEKDQPPFGDSDDSVEADKSSPGIHLERSQASTTVDINTQVEKEVPPGSAIIHIKKHQVSVEGTNQTDVKAVGGPAKLLVVSLEEAWPLHGDCETDAEEGTSLTASVVADVRKSQLPAEGDAGAEWAAAVLKQERAHEVGAQGGPPVAQVEQDLPISRENLTDLVVDTDTLGESTQPQREGAQVPTGREREQHVGGTKDSEDNYGDSEDLDLQATQCFLENQGLEAVQSMEDEPTQAFMLTPPQELGPSHCSFQTTGTLDEPWEVLATQPFCLRESEDSETQPFDTHLEAYGPCLSPPRAIPGDQHPESPVHTEPMGIQGRGRQTVDKVMGIPKETAERVGPERGPLERETEKLLPERQTDVTGEEELTKGKQDREQKQLLARDTQRQESDKNGESASPERDRESLKVEIETSEEIQEKQVQKQTLPSKAFEREVERPVANRECDPAELEEKVPKVILERDTQRGEPEGGSQDQKGQASSPTPEPGVGAGDLPGPTSAPVPSGSQSGGRGSPVSPRRHQKGLLNCKMPPAEKASRIRAAEKVSRGDQESPDACLPPTVPEAPAPPQKPLNSQSQKHLAPPPLLSPLLPSIKPTVRKTRQDGSQEAPEAPLSSELEPFHPKPKIRTRKSSRMTPFPATSAAPEPHPSTSTAQPVTPKPTSQATRSRTNRSSVKTPEPVVPTAPELQPSTSTDQPVTSEPTSQVTRGRKSRSSVKTPETVVPTALELQPSTSTDRPVTSEPTSQATRGRKNRSSVKTPEPVVPTAPELQPSTSTDQPVTSEPTYQATRGRKNRSSVKTPEPVVPTAPELRPSTSTDRPVTPKPTSRTTRSRTNMSSVKTPETVVPTAPELQISTSTDQPVTPKPTSRTTRSRTNMSSVKNPESTVPIAPELPPSTSTEQPVTPEPTSRATRGRKNRSSGKTPETLVPTAPKLEPSTSTDQPVTPEPTSQATRGRTNRSSVKTPETVVPTAPELQPSTSTDQPVTPEPTSQATRGRTDRSSVKTPETVVPTAPELQASASTDQPVTSEPTSRTTRGRKNRSSVKTPETVVPAAPELQPSTSTDQPVTPEPTSRATRGRTNRSSVKTPESIVPIAPELQPSTSRNQLVTPEPTSRATRCRTNRSSVKTPEPVVPTAPEPHPTTSTDQPVTPKLTSRATRRKTNRSSVKTPKPVEPAASDLEPFTPTDQSVTPEAIAQGGQSKTLRSSTVRAMPVPTTPEFQSPVTTDQPISPEPITQPSCIKRQRAAGNPGSLAAPIDHKPCSAPLEPKSQASRNQRWGAVRAAESLTAIPEPASPQLLETPIHASQIQKVEPAGRSRFTPELQPKASQSRKRSLATMDSPPHQKQPQRGEVSQKTVIIKEEEEDTAEKPGKEEDVVTPKPGKRKRDQAEEEPNRIPSRSLRRTKLNQESTAPKVLFTGVVDARGERAVLALGGSLAGSAAEASHLVTDRIRRTVKFLCALGRGIPILSLDWLHQSRKAGFFLPPDEYVVTDPEQEKNFGFSLQDALSRARERRLLEGYEIYVTPGVQPPPPQMGEIISCCGGTYLPSMPRSYKPQRVVITCPQDFPHCSIPLRVGLPLLSPEFLLTGVLKQEAKPEAFVLSPLEMSST
chain 2: MAASRRSQHHHHHHQQQLQPAPGASAPPPPPPPPLSPGLAPGTTPASPTASGLAPFASPRHGLALPEGDGSRDPPDRPRSPDPVDGTSCCSTTSTICTVAAAPVVPAVSTSSAAGVAPNPAGSGSNNSPSSSSSPTSSSSSSPSSPGSSLAESPEAAGVSSTAPLGPGAAGPGTGVPAVSGALRELLEACRNGDVSRVKRLVDAANVNAKDMAGRKSSPLHFAAGFGRKDVVEHLLQMGANVHARDDGGLIPLHNACSFGHAEVVSLLLCQGADPNARDNWNYTPLHEAAIKGKIDVCIVLLQHGADPNIRNTDGKSALDLADPSAKAVLTGEYKKDELLEAARSGNEEKLMALLTPLNVNCHASDGRKSTPLHLAAGYNRVRIVQLLLQHGADVHAKDKGGLVPLHNACSYGHYEVTELLLKHGACVNAMDLWQFTPLHEAASKNRVEVCSLLLSHGADPTLVNCHGKSAVDMAPTPELRERLTYEFKGHSLLQAAREADLAKVKKTLALEIINFKQPQSHETALHCAVASLHPKRKQVTELLLRKGANVNEKNKDFMTPLHVAAERAHNDVMEVLHKHGAKMNALDTLGQTALHRAALAGHLQTCRLLLSYGSDPSIISLQGFTAAQMGNEAVQQILSESTPIRTSDVDYRLLEASKAGDLETVKQLCSSQNVNCRDLEGRHSTPLHFAAGYNRVSVVEYLLHHGADVHAKDKGGLVPLHNACSYGHYEVAELLVRHGASVNVADLWKFTPLHEAAAKGKYEICKLLLKHGADPTKKNRDGNTPLDLVKEGDTDIQDLLRGDAALLDAAKKGCLARVQKLCTPENINCRDTQGRNSTPLHLAAGYNNLEVAEYLLEHGADVNAQDKGGLIPLHNAASYGHVDIAALLIKYNTCVNATDKWAFTPLHEAAQKGRTQLCALLLAHGADPTMKNQEGQTPLDLATADDIRALLIDAMPPEALPTCFKPQATVVSASLISPASTPSCLSAASSIDNLTGPLAELAVGGASNAGDGAAGTERKEGEVAGLDMNISQFLKSLGLEHLRDIFETEQITLDVLADMGHEELKEIGINAYGHRHKLIKGVERLLGGQQGTNPYLTFHCVNQGTILLDLAPEDKEYQSVEEEMQSTIREHRDGGNAGGIFNRYNVIRIQKVVNKKLRERFCHRQKEVSEENHNHHNERMLFHGSPFINAIIHKGFDERHAYIGGMFGAGIYFAENSSKSNQYVYGIGGGTGCPTHKDRSCYICHRQMLFCRVTLGKSFLQFSTMKMAHAPPGHHSVIGRPSVNGLAYAEYVIYRGEQAYPEYLITYQIMKPEAPSQTATAAEQKT

Variants of: B1
Assay: lacO-array tethering colocalization (immunofluorescence) in U2OS17 cells; N = 100 cells in each experiment, three independent experiments; read off a plot

Question: chain 1 P951A, chain 1 E952A, chain 1 G953A, chain 1 L1996A, chain 1 E1997A, chain 1 G1998A was tested. Which screen value did it give?
Answer: ~3.7%

Question: How did the screen value turn out when chain 1 L1996A, chain 1 E1997A, chain 1 G1998A was run?
Answer: ~27%

Question: chain 1 P951A, chain 1 E952A, chain 1 G953A was tested. Which screen value did it give?
Answer: ~30%
